# Laboratory results taken from publication PMC8079451, “Phosphopeptide interactions of the Nbs1 N-terminal FHA-BRCT1/2 domains” (Scientific Reports, 2021).
# Square brackets hold non-standard residues; d marks the D form. Primed or numbered codes have the meaning given here. Ends that are not written are not given here. Peptide text beside a SMILES is read from it. FITC′ = fluorescein isothiocyanate label; pT = C[C@@H](OP(=O)(O)O)[C@H](N)C(=O)O; pS = N[C@@H](COP(=O)(O)O)C(=O)O
# T1: hsNbs1(384)(R28S,K29S,R43A) triple mutant (human, UniProt O60934 1-384, R28S | K29S | R43A)
# T1 construct: source: E. coli BL21(DE3) pLacI, purified as the wild type
# T1 sequence (looked up): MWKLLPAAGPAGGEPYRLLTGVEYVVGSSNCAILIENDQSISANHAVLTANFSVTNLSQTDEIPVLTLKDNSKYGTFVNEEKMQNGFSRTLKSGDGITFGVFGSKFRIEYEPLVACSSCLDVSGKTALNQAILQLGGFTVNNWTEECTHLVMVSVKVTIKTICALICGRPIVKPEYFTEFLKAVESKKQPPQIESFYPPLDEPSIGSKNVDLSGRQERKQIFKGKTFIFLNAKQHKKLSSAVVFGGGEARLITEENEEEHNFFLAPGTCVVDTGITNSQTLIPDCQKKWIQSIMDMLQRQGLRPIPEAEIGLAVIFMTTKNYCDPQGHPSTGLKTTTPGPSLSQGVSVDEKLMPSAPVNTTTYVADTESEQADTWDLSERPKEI
# T2: hsNbs1(384), the N-terminal 384 residues of homo sapiens Nbs1 containing the FHA-BRCT1-BRCT2 domains (human, UniProt O60934 1-384)
# T2 construct: gene optimised for E. coli, cloned into pET30a (NdeI/HindIII); also called wt; source: E. coli BL21(DE3) pLacI, purified (Ni-NTA, HiTrap Q, Superdex 75)
# T2 sequence (looked up): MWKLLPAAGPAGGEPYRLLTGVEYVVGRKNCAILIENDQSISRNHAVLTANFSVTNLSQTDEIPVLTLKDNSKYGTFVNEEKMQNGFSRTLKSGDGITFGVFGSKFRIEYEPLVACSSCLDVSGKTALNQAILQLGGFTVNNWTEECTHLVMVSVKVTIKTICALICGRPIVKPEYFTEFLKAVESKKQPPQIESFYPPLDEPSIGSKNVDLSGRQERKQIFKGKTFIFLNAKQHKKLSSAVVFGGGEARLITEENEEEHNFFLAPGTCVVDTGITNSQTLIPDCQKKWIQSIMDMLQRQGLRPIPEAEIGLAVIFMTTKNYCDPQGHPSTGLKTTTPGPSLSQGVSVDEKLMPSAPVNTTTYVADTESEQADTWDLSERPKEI
# T3: hsNbs1(384) (Homo sapiens, UniProt O60934)
# T3 construct: The N-terminal 384 residues of homo sapiens Nbs1 (hsNbs1(384) containing the FHA-BRCT1-BRCT2 domains); made in house; host or cells: E. coli BL21(DE3) pLacI
# T3 sequence (O60934 1-384): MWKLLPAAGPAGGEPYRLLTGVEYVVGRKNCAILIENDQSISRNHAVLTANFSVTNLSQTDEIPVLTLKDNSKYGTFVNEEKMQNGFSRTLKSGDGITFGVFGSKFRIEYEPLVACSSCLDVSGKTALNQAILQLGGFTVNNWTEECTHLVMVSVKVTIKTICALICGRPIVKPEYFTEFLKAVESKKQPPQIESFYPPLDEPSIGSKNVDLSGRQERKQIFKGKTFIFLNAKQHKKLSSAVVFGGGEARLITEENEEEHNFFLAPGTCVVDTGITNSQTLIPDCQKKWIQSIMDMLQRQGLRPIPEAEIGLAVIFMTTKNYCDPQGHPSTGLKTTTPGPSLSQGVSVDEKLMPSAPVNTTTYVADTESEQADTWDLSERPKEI
# Molecular target: T1, hsNbs1(384)(R28S,K29S,R43A) triple …
# Test: fluorescence polarisation; 100 nM FITC-labeled phosphopeptide with increasing hsNbs1(384); room temperature, 15 min incubation; 25 mM HEPES pH 7.4, 150 mM NaCl, 1 mM EDTA, 2 mM DTT, 0.05% Tween20, 0.1% BSA; one-site model
# Conditions: both partners purified
row,Molecule,Kd [µM]
1,"{FITC′}-GGFID[pS]D[pT]DAEEE (Gly-Gly between the N-terminal FITC and the peptide; MDC1, human, stretch around pS329 and pT331; also called hsMDC1; source: synthetic peptide (GenScript)) [MDC1 pS329,pT331 phosphopeptide FITC-GG-FID(pS)D(pT)DAEEE]",1.47
2,"{FITC′}-GGPFGFID[pS]D[pT]DVEEER (Gly-Gly between the N-terminal FITC and the peptide; MDC1, human, one of the SDT repeats; also called second test peptide containing the pSer-Asp-pThr motif; source: synthetic peptide (GenScript)) [hsMDC1 phosphopeptide FITC-GG-PFGFID(pS)D(pT)DVEEER]",1.6

# Molecular target: T2, hsNbs1(384), the N-terminal 384 …
# Test: as above
# Conditions: both partners purified
row,Molecule,Kd [µM]
1,"SLETVS[pT]QELYSIPEDK(FITC′) (Checkpoint 2 kinase (Chk2), stretch around pT68; added C-terminal lysine that carries FITC (footnote b: C-terminal K/FITC); source: synthetic peptide (GenScript)) [Chk2 pT68 phosphopeptide SLETVS(pT)QELYSIPED with C-terminal K/FITC]",98.7
2,"GLDLNTSL[pS]PSLLQPGKKKK(FITC′) (CtIP, human, stretch around pS347; added C-terminal lysine that carries FITC (footnote b: C-terminal K/FITC); also called CtIP pSer347 peptide; pSer347 peptide; source: synthetic peptide (GenScript)) [CtIP pS347 phosphopeptide GLDLNTSL(pS)PSLLQPGKKK with C-terminal K/FITC]",2.64
3,"EDESIYF[pT]PELYDPEIEK(FITC′) (FANCJ helicase, stretch around pT1133; added C-terminal lysine that carries FITC (footnote b: C-terminal K/FITC); A shorter FANCJ phosphopeptide (SIYFpTPELYD) stands in the cited TopBP1 BRCT7/8 structure PDB 3AL3; also called FANCJ pThr1133 phosphopeptide; FANCJ phosphopeptide; source: synthetic peptide (GenScript)) [FANCJ pT1133 phosphopeptide EDESIYF(pT)PELYDPEIE with C-terminal K/FITC]",26.9
4,"WEVGFPS[pT]QTCMERGYIK(FITC′) (CtIP, human, stretch around pT859; added C-terminal lysine that carries FITC (footnote b: C-terminal K/FITC); also called CtIP-859; source: synthetic peptide (GenScript)) [CtIP pT859 phosphopeptide WEVGFPS(pT)QTCMERGYI with C-terminal K/FITC]",90.5
5,"{FITC′}-GGFID[pS]D[pT]DAEEE (Gly-Gly between the N-terminal FITC and the peptide; MDC1, human, stretch around pS329 and pT331; also called hsMDC1; source: synthetic peptide (GenScript)) [MDC1 pS329,pT331 phosphopeptide FITC-GG-FID(pS)D(pT)DAEEE]",0.65
6,"TEDSLRFSDS[pT]SK[pT]PPQEELPK(FITC′) (CtIP, human, stretch around pT312 and pT315; added C-terminal lysine that carries FITC (footnote b: C-terminal K/FITC); also called test peptide containing the pThr312-Ser-Lys-pThr315; source: synthetic peptide (GenScript)) [CtIP pT312,pT315 phosphopeptide TEDSLRFSDS(pT)SK(pT)PPQEELP with C-terminal K/FITC]",90
7,"{FITC′}-GGRYIPPN[pT]PENFWEVG (Gly-Gly between the N-terminal FITC and the peptide; CtIP, human, stretch around pT847; source: synthetic peptide (GenScript)) [CtIP pT847 phosphopeptide FITC-GG-RYIPPN(pT)PENFWEVG]",22
8,"{FITC′}-GGDNGAED[pS]GD[pT]EDELR (Gly-Gly between the N-terminal FITC and the peptide; XRCC1, human, stretch around pS485 and pT488; also called XRCC1 pSer485-Gly-Asp-pThr488 peptide with an N-terminal fluorescein tag; source: synthetic peptide (GenScript)) [XRCC1 pS485,pT488 phosphopeptide FITC-GG-DNGAED(pS)GD(pT)EDELR]",34.8
9,"EGVQSEGQDNGAED[pS]GD[pT]EDELRK(FITC′) (XRCC1, human, stretch around pS485 and pT488; added C-terminal lysine that carries FITC (footnote b: C-terminal K/FITC); also called XRCC1 pSer485-Gly-Asp-pThr488 peptide containing a C-terminal fluorescein; source: synthetic peptide (GenScript)) [XRCC1 pS485,pT488 phosphopeptide EGVQSEGQDNGAED(pS)GD(pT)EDELR with C-terminal K/FITC]",4.5
10,"{FITC′}-GGDPYAG[pS][pT]DENTDSEEHQE (Gly-Gly between the N-terminal FITC and the peptide; XRCC1, human, stretch around pS518 and pT519; also called XRCC1 pSer518-pThr519 phosphopeptide; source: synthetic peptide (GenScript)) [XRCC1 pS518,pT519 phosphopeptide FITC-GG-DPYAG(pSpT)DENTDSEEHQE]",> 65

# Molecular target: T3, hsNbs1(384)
# Test: Fluorescence polarization (FP) binding of FITC-labeled phosphopeptides to hsNbs1(384)
# Conditions: wild-type hsNbs1(384); FP assay
# Method: Figure 4 Binding of FITC-labeled peptides to hsNbs1(384). Solid lines with filled data markers show normalized fluorescence polarization of the following peptides (see Table 1 for peptide sequences) as a function of the concentration of hsNbs1(384) corresponding to: CtIP-pS347 (gray); CtIP-pT847 (blue); FANCJ (green); CtIP-859 (orange); ChK2-pT68 (yellow). FP studies were performed at room temperature in 25 mM HEPES (pH 7.4), 150 mM NaCl, 1 mM EDTA, 2 mM DTT, 0.05% Tween20, 0.1% BSA after a 15-min incubation period. The data points were fit to a single-site non-cooperative model.
# Phosphopeptide-protein interactions were measured by a fluorescence polarization (FP) assay. 100 nM FITC-labeled phosphopeptides were incubated at room temperature for 15 min with the indicated concentrations of hsNbs1(384) in FP buffer composed of 25 mM HEPES, 150 mM NaCl, 1 mM EDTA, 2 mM DTT, 0.05% Tween20, 0.1% BSA, pH 7.4 prior to the measurement of fluorescence polarization (POLARstar Omega microplate reader, BMG Labtech). All samples were prepared in a 96-well black flat-bottomed polypropylene microplate and each well contained 50 µL. Each well was recorded by 100 flashes with an excitation wavelength of 485 nm, and detection of emission at 520 nm. Data for the interaction of a phosphopeptide with hsNbs1(384) were analyzed using non-linear fitting with a one-site total binding model. All Kd values were determined in triplicate, and reported as mean ± standard deviation. All phosphopeptides used were synthesized by GenScript.
row,Molecule,"binding to Nbs1(384), in words"
1,"DPYAG(pSpT)DENTDSEEHQE [XRCC1 pS518,pT519, FITC-labeled XRCC1 phosphopeptide with consecutively phosphorylated pSer518-pThr519]",no interaction
2,"TRVS[pS]PVFGAT [CtIP pS327, FITC-labeled CtIP pSer327 peptide that targets the tandem BRCA1 BRCT domains]",does not bind

# Same assay, conditions: wild-type hsNbs1(384); FP; Kd 35 µM vs 4.5 µM
row,Molecule,"difference in Kd between N-terminal and C-terminal fluorescein-tagged XRCC1 pS485,pT488 peptides"
1,CC(C)C[C@H](NC(=O)[C@H](CCC(=O)O)NC(=O)[C@H](CC(=O)O)NC(=O)[C@H](CCC(=O)O)NC(=O)[C@@H](NC(=O)[C@H](CC(=O)O)NC(=O)CNC(=O)[C@H](COP(=O)(O)O)NC(=O)[C@H](CC(=O)O)NC(=O)[C@H](CCC(=O)O)NC(=O)[C@H](C)NC(=O)CNC(=O)[C@H](CC(N)=O)NC(=O)[C@H](CC(=O)O)NC(=O)[C@H](CCC(N)=O)NC(=O)CNC(=O)[C@H](CCC(=O)O)NC(=O)[C@H](CO)NC(=O)[C@H](CCC(N)=O)NC(=O)[C@@H](NC(=O)CNC(=O)[C@@H](N)CCC(=O)O)C(C)C)[C@@H](C)OP(=O)(O)O)C(=O)N[C@@H](CCCNC(=N)N)C(=O)O (H-EGVQSEGQDNGAED[pS]GD[pT]EDELR-OH),eightfold
